B1: recombinant h3/acidic CaP-CBD (natural protein, rat, UniProt P37397 1-330, looked up)
chain: MTHFNKGPSYGLSAEVKNKIASKYDQQAEEDLRNWIEEVTGMGIGTNFQLGLKDGIILCELINKLQPGSVKKVNESSLNWPQLENIGNFIKAIQAYGMKPHDIFEANDLFENGNMTQVQTTLVALAGLAKTKGFHTTIDIGVKYAEKQTRRFDEGKLKAGQSVIGLQMGTNKCASQAGMTAYGTRRHLYDPKMQTDKPFDQTTISLQMGTNKGASQAGMSAPGTRRDIYDQKLTLQPVDNSTISLQMGTNKVASQKGMSVYGLGRQVYDPKYCAAPTEPVIHNGSQGTGTNGSEISDSDYQAEYPDEYHGEYPDEYPREYQYGDDQGIDY
B2: recombinant h1CaP-CBD (natural protein, ferret, UniProt Q9GK38 1-297, looked up)
chain: MSSAHFNRGPAYGLSAEVKNKLAQKYDHQREQELREWIEGVTGRRIGSNFMDGLKDGIILCEFINKLQPGSVKKVNESTQNWHQLENIGNFIKAITKYGVKPHDIFEANDLFENTNHTQVQSTLLALASMAKTKGNKVNVGVKYAEKQERKFEPEKLREGRNIIGLQMGTNKFASQQGMTAYGTRRHLYDPKLGTDQPLDQATISLQMGTNKGASQAGMTAPGTKRQIFEPGLGMEHCDTLNVSLQMGSNKGASQRGMTVYGLPRQVYDPKYCLTPEYPELGEPTHNHHAHNYYNSA

Target: recombinant, active murine ERK2 protein (murine, UniProt P63085 1-358)
Test: pull-down

Binder	binding result
B1	binds
B2	binds

Source: PMC2854098 (Molecular Biology of the Cell, 2010)
